Results on two molecules are retold here after patent US20060216303A1.

The assay addresses bacterial fusion protein 11-2 (a hybrid of b-galactosidase and human mammary mucin) (human) (UniProt P15941). Put plainly: reciprocal of the competitor concentration giving 50% binding; competition radioimmunoassay on 11-2 fusion protein.

B1: murine-human chimeric BrE-3 antibody (antibody, V domains shown)
VH: EVKLEESGGGLVQPGGSMKLSCAASGFTFSDAWMDWVRQSPEKGLEWVAEIRNKANNHATYYDESVKGRFTISRDDSKSRVYLQMISLRAEDTGLYYCTGEFANWGQGTLVTVSA
VL: DVVMTQTPLSLPVSLGDQASISCRSSQNLVHNNGNTYLYWFLQKSGQSPKLLIYRASIRFSGVPDRFSGSGSETDFTLKISRVEAEDLGVYFCFQGTHVPWTFGGGTKLEIK
B1 returned a Ka of 2.68e+08 M⁻¹.

B2: murine BrE-3 monoclonal antibody (antibody, V domains shown)
VH: EVKLEESGGGLVQPGGSMKLSCAASGFTFSDAWMDWVRQSPEKGLEWVAEIRNKANNHATYYDESVKGRFTISRDDSKSRVYLQMISLRAEDTGLYYCTGEFANWGQGTLVTVSA
VL: DVVMTQTPLSLPVSLGDQASISCRSSQNLVHNNGNTYLYWFLQKSGQSPKLLIYRASIRFSGVPDRFSGSGSETDFTLKISRVEAEDLGVYFCFQGTHVPWTFGGGTKLEIK
Molecule B2 had a Ka of 3.75e+08 M⁻¹.
